Experimental data as given in patent publication US20190300967.

Test system: high-mobility group box 1 (HMGB1)
Sequence (chain, as listed by the source): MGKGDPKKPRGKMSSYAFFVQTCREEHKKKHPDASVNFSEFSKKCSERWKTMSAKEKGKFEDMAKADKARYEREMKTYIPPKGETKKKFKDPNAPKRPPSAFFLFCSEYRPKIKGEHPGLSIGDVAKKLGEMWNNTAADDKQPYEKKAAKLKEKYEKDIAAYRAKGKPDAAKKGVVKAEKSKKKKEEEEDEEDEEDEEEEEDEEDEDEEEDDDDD

With MAGE-A3/6-TRIM28 E3 ubiquitin ligase the “in vitro ubiquitination reactions on protein microarrays containing >9000 recombinant proteins (screen for direct substrates of MAGE-A)” value was “As a significantly ubiquitinated target of the MAGE-TRIM28 complex, high-mobility group box 1 (HMGB1) emerged”.
